According to article PMC7110113, “Termination of non‐coding transcription in yeast relies on both an RNA Pol II CTD interaction domain and a CTD‐mimicking region in Sen1” (The EMBO Journal, 2020):
Ends that are not written are not given here. FAM = 5,6-carboxyfluorescein

T1: Nrd1 CID (S. cerevisiae, UniProt P53617 1-153)
T1 construct: The NMR sample was uniformly 15N,13C-labelled; also called wild-type Nrd1 CID; source: recombinant, purified as described previously (Kubicek et al, 2012)
T1 sequence (looked up): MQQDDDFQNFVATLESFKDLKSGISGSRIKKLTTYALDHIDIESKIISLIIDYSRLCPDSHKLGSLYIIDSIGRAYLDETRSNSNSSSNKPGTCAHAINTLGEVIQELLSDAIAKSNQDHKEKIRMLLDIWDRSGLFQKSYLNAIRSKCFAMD

T2: Nrd1 CID S25D (S. cerevisiae, UniProt P53617 1-153, S25D)
T2 construct: Nrd1 CID, S. cerevisiae; source: recombinant, purified as described previously (Kubicek et al, 2012)
T2 sequence (looked up): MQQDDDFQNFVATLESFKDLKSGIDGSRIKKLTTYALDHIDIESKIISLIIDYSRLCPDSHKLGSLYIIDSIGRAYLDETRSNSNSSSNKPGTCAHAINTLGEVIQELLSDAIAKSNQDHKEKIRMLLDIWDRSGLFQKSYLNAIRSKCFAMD


Key:
[1] = molecular target: Sen1 NIM peptide (Sen1 aa 2,052-2,063) (S. cerevisiae) (UniProt Q00416); assay: fluorescence polarisation; fluorescence anisotropy, equilibrium binding of Nrd1 CID variants to FAM-labelled NIM peptides; 10°C, 50 mM Na2HPO4, 100 mM NaCl, pH 8; 1:1 model with non-specific binding (DynaFit)
[2] = molecular target: Trf4 NIM peptide (S. cerevisiae); assay: as above
[3] = molecular target: Trf4 NIM peptide, FAM-labelled (S. cerevisiae); assay: fluorescence polarisation; fluorescence anisotropy; N-terminally FAM-labelled NIM peptides with purified Nrd1 CID versions; 10°C, 50 mM Na2HPO4, 100 mM NaCl, pH 8; 1:1 model with non-specific binding (DynaFit)
Nrd1 CID [4] = molecular target: T1, Nrd1 CID; assay: as above; details: both partners purified
Nrd1 CID S25D = molecular target: T2, Nrd1 CID S25D; assay: as above; details: both partners purified
Nrd1 CID [5] = molecular target: T1, Nrd1 CID; assay: NMR titration; [1H,15N] HSQC of Nrd1 CID titrated with NIM peptide, chemical shift perturbations; 20°C, 50 mM Na2HPO4, 100 mM NaCl, pH 8; details: both partners purified

Molecule	Kd [2]	also measured
Nrd1 CID S25D (from UniProt P53617 1-153) (domain or fragment)	53.9 µM	Kd [1]: 76.1 µM
Nrd1 CID L20D (domain or fragment) MQQDDDFQNFVATLESFKDDKSGISGSRIKKLTTYALDHIDIESKIISLIIDYSRLCPDSHKLGSLYIIDSIGRAYLDETRSNSNSSSNKPGTCAHAINTLGEVIQELLSDAIAKSNQDHKEKIRMLLDIWDRSGLFQKSYLNAIRSKCFAMD	13.4 µM	–
Nrd1 CID (domain or fragment) MQQDDDFQNFVATLESFKDLKSGISGSRIKKLTTYALDHIDIESKIISLIIDYSRLCPDSHKLGSLYIIDSIGRAYLDETRSNSNSSSNKPGTCAHAINTLGEVIQELLSDAIAKSNQDHKEKIRMLLDIWDRSGLFQKSYLNAIRSKCFAMD	–	Kd [3]: 0.9 µM
Nrd1 CID I130K (domain or fragment) MQQDDDFQNFVATLESFKDLKSGISGSRIKKLTTYALDHIDIESKIISLIIDYSRLCPDSHKLGSLYIIDSIGRAYLDETRSNSNSSSNKPGTCAHAINTLGEVIQELLSDAIAKSNQDHKEKIRMLLDKWDRSGLFQKSYLNAIRSKCFAMD	14.1 µM	–
Nrd1 CID R28D (domain or fragment) MQQDDDFQNFVATLESFKDLKSGISGSDIKKLTTYALDHIDIESKIISLIIDYSRLCPDSHKLGSLYIIDSIGRAYLDETRSNSNSSSNKPGTCAHAINTLGEVIQELLSDAIAKSNQDHKEKIRMLLDIWDRSGLFQKSYLNAIRSKCFAMD	63.4 µM	–
{FAM}-DDDEDDYTPSIS (peptide, UniProt Q00416 2052-2063, looked up, The text prints D2052-D2053-D2054-E2055-D2056-D2057, Y2058, T2059, P2060, S2061 and I2062; source: synthetic peptide) [Sen1 NIM peptide, FAM-labelled]	–	Kd (Nrd1 CID [4]): 1.2 ± 0.02 µM; binding result (Nrd1 CID S25D): binds
DDDEDDYTPSIS (peptide, UniProt Q00416 2052-2063, looked up, The text prints D2052-D2053-D2054-E2055-D2056-D2057, Y2058, T2059, P2060, S2061 and I2062; it is surmised to be unlabelled; source: synthetic peptide) [Sen1 NIM peptide (NMR)]	–	binding result (Nrd1 CID [5]): binds

Further lines, with some results ahead:

Kd [2]	Molecule	also measured
4.5 µM	Nrd1 CID I130A (domain or fragment) MQQDDDFQNFVATLESFKDLKSGISGSRIKKLTTYALDHIDIESKIISLIIDYSRLCPDSHKLGSLYIIDSIGRAYLDETRSNSNSSSNKPGTCAHAINTLGEVIQELLSDAIAKSNQDHKEKIRMLLDAWDRSGLFQKSYLNAIRSKCFAMD	–
1.4 µM	Nrd1 CID R133A (domain or fragment) MQQDDDFQNFVATLESFKDLKSGISGSRIKKLTTYALDHIDIESKIISLIIDYSRLCPDSHKLGSLYIIDSIGRAYLDETRSNSNSSSNKPGTCAHAINTLGEVIQELLSDAIAKSNQDHKEKIRMLLDIWDASGLFQKSYLNAIRSKCFAMD	–
1.2 µM	Nrd1 CID R133D (domain or fragment) MQQDDDFQNFVATLESFKDLKSGISGSRIKKLTTYALDHIDIESKIISLIIDYSRLCPDSHKLGSLYIIDSIGRAYLDETRSNSNSSSNKPGTCAHAINTLGEVIQELLSDAIAKSNQDHKEKIRMLLDIWDDSGLFQKSYLNAIRSKCFAMD	–
6.1 µM	Nrd1 CID I130N (domain or fragment) MQQDDDFQNFVATLESFKDLKSGISGSRIKKLTTYALDHIDIESKIISLIIDYSRLCPDSHKLGSLYIIDSIGRAYLDETRSNSNSSSNKPGTCAHAINTLGEVIQELLSDAIAKSNQDHKEKIRMLLDNWDRSGLFQKSYLNAIRSKCFAMD	–
1.1 µM	Nrd1 CID M126A (domain or fragment) MQQDDDFQNFVATLESFKDLKSGISGSRIKKLTTYALDHIDIESKIISLIIDYSRLCPDSHKLGSLYIIDSIGRAYLDETRSNSNSSSNKPGTCAHAINTLGEVIQELLSDAIAKSNQDHKEKIRALLDIWDRSGLFQKSYLNAIRSKCFAMD	–
6.1 µM	Nrd1 CID K21D (domain or fragment) MQQDDDFQNFVATLESFKDLDSGISGSRIKKLTTYALDHIDIESKIISLIIDYSRLCPDSHKLGSLYIIDSIGRAYLDETRSNSNSSSNKPGTCAHAINTLGEVIQELLSDAIAKSNQDHKEKIRMLLDIWDRSGLFQKSYLNAIRSKCFAMD	–
1.3 µM	Nrd1 CID R133G (domain or fragment) MQQDDDFQNFVATLESFKDLKSGISGSRIKKLTTYALDHIDIESKIISLIIDYSRLCPDSHKLGSLYIIDSIGRAYLDETRSNSNSSSNKPGTCAHAINTLGEVIQELLSDAIAKSNQDHKEKIRMLLDIWDGSGLFQKSYLNAIRSKCFAMD	–
